Measurements reported in publication PMC2063226, “High-affinity recombinant phage antibodies to the pan-carcinoma marker epithelial glycoprotein-2 for tumour targeting” (British Journal of Cancer, 1998).
One block for each molecule: values may come before it.

Columns and labels:
[1] = molecular target: recombinant epithelial glycoprotein-2 (EGP-2) (human) (UniProt P16422); assay: SPR; BIAcore; EGP-2 covalently coupled to a CM-5 sensorchip (350 RU, 'low-density' surface); antibody (at 200 nM) or antibody fragment flowed at 5 ul/min; koff fitted on t = 315-320 s (MOC-31 whole antibody: average of three fittings); kon from Ks against antibody concentration; room temperature; apparent values for the bivalent antibodies
[2] = molecular target: T1, recombinant epithelial glycoprotein-2 (EGP-2) (human, UniProt P16422)
Target sequence in this assay (P16422 24-265): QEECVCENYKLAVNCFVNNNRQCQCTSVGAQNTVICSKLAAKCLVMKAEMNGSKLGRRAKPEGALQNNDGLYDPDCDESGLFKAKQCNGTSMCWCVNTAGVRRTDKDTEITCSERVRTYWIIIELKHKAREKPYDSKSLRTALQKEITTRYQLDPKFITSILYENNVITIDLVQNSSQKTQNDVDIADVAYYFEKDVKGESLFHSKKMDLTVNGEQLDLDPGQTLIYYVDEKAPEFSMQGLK

[3] = molecular target: T1, recombinant epithelial glycoprotein-2 …; assay: SPR; BIAcore; EGP-2 covalently coupled to a CM-5 sensorchip (350 RU, 'low-density' surface); antibody (at 200 nM) or antibody fragment flowed at 5 ul/min; koff fitted on t = 315-320 s (MOC-31 whole antibody: average of three fittings); kon from Ks against antibody concentration; room temperature; apparent values for the bivalent antibodies; conditions: both partners purified
[4] = molecular target: the molecule itself; assay: SEC; gel filtration (Superdex column) of the IMAC-purified scFv preparations; monomeric and dimeric forms separated

Molecule: MOC-31 whole antibody
Ka [1]: 4.24e+08 M⁻¹ | koff [1]: 5e-05 s⁻¹ | kon [1]: 106000 M⁻¹ s⁻¹ | t1/2 [1]: 231 min

B2: 17-1A antibody (antibody, V domains shown)
VH: QVQLQQSGAELVRPGTSVKVSCKASGYAFTNYLIEWVKQRPGQGLEWIGVINPGSGGTNYNEKFKGKATLTADKSSSTAYMQLSSLTSDDSAVYFCARDGPWFAYWGQGTLVTVSA
VL: NIVMTQSPKSMSMSVGERVTLTCKASENVVTYVSWYQQKPEQSPKLLIYGASNRYTGVPDRFTGSGSATDFTLTISSVQAEDLADYHCGQGYSYPYTFGGGTKLEIK
notes: Murine whole bivalent antibody; also called 17-lA; source: gift from Dr SO Warnaar (Centocor, Leiden); copies: 2 + 2
koff [3]: 0.0382 s⁻¹ | kon [3]: 595000 M⁻¹ s⁻¹ | t1/2 [3]: 0.3 min

B4: 323/A3 antibody (antibody, V domains shown)
VH: QIQLVQSGPELKKPGETVKISCKASGYTFTNYGMNWVRQASGEGLKWMGWINTYTGEPTYGEDFKGRFAFSLETSASTAYLQINNLKNEDTATYFCARFGNYVDYWGQGTTLTVSS
VL: DIVMTQAAFSNPVTLGTSASISCRSSKNLLHSNGITYLYWYLQKPGQSPHLLIYQMSNLASGVPDRFSSSGSGTDFTLRISRVEAEDVGVYYCAQNLEIPRTFGGGTKLEIK
notes: CDR3 identical); Murine whole bivalent antibody; source: gift from Dr SO Warnaar (Centocor, Leiden); copies: 2 + 2
koff [3]: 0.00106 s⁻¹ | kon [3]: 251000 M⁻¹ s⁻¹ | t1/2 [3]: 10.9 min

The next lines start with results.

binding result [2]: binds
B1: MOC-161 (antibody, V domains shown)
VH: QVQLQQSGTELIRPGTSVKISCKASGYAFTDYWLGWVKHRPGHGLEWIGDIYPGSDNTYYHEKFKGKATLTTDKSSSTAYMQLSSLTSEDSAVYFCARGLKGDYWGQGTTVTVSS
VL: DIQMTQSPSSLSAFSGGKVTITCKASQDIKKSIAWYQHKPGKGPRLLIHYTSTLQPGIPSRFSGSGSGEEYSFSISNLEPEDIATYYCQQYDNLRTFGGGTKLELK

koff [3]: 0.0583 s⁻¹ | kon [3]: 1.09e+06 M⁻¹ s⁻¹ | t1/2 [3]: 0.2 min
B3: chimeric 17-1A (antibody, V domains shown)
VH: B2 VH
VL: B2 VL
notes: as the VH of m2 (17-1A); as the VL of m2 (17-1A); Whole bivalent antibody; also called chimeric version of 17-1A; source: gift from Dr SO Warnaar (Centocor, Leiden); copies: 2 + 2

koff [1]: 0.00034 s⁻¹ | t1/2 [1]: 34 min
B5: MOC-31 scFv (soluble) (scFv)
scFv: QVQLQQSGPELKKPGETVKISCKASGYTFTNYGMNWVKQAPGKGLKWMGWINTYTGESTYADDFKGRFAFSLETSASAAYLQINNLKNEDTATYFCARFAIKGDYWGQGTTVTVSSGGGGSGGGGSGGGGSDIVLTQSPFSNPVTLGTSASISCRSTKSLLHSNGITYLYWYLQKPGQSPQLLIYQMSNLASGVPDRFSSSGSGTDFTLRISRVEAEDVGVYYCAQNLEIPRTFGGGTKLEIKR
notes: 15-residue (Gly4Ser)3 linker, written out from the printed formula; The screening ELISA of the methods used clones in pCANTAB6 (His6 before c-myc); also called monovalent MOC-31 scFv; source: E. coli TG1, pUC119-polyHIS6myc, periplasm; purified (IMAC on Talon resin, gel filtration, monomer) for SPR; periplasmic preparation for immunohistochemistry; induced bacterial supernatant for ELISA; not …
binding result [4]: binds
